US6773917 (CURATORS OF THE UNIVERSITY OF MISSOURI, dated 2004)

T1: plastid pyruvate dehydrogenase heterotetramer (imported plastid PDC E1α and E1β subunits) (Arabidopsis thaliana, UniProt O24457 69-428; Q9C6Z3 74-406)
T1 construct: also called this heterotetramer
T1 sequence 1: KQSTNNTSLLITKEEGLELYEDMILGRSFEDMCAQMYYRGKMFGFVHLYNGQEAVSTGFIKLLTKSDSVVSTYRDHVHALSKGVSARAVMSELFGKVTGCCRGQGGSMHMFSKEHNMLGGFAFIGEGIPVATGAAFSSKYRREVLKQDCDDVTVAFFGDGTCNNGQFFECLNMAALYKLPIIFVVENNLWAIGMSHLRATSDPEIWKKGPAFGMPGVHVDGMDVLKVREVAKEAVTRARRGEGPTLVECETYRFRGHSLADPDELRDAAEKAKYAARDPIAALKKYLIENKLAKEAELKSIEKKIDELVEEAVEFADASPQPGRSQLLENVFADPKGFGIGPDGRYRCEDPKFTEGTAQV
T1 sequence 2: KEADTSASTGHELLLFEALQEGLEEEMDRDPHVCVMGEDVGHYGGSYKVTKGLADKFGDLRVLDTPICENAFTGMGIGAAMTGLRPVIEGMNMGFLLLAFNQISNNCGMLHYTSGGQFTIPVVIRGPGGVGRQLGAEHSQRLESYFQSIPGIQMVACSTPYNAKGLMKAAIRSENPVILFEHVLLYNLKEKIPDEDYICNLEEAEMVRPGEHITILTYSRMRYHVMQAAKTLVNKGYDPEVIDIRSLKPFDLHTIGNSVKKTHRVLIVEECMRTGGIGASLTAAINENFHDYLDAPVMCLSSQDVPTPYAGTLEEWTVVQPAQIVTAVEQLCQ

T2: in vitro imported Arabidopsis thaliana plastid PDC E1α subunit (Arabidopsis thaliana, UniProt O24457 69-428)
T2 construct: Translated in vitro and imported into chloroplasts
T2 sequence: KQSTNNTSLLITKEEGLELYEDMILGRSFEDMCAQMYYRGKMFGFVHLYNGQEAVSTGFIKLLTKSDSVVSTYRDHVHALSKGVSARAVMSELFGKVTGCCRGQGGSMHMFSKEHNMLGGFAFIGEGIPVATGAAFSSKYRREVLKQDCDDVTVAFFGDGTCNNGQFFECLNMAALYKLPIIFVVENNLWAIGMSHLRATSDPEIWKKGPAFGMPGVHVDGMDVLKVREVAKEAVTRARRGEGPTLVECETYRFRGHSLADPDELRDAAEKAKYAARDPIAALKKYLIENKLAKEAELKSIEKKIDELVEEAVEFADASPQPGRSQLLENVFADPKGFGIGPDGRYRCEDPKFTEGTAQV


Assays:
[1] = molecular target: T1, plastid pyruvate dehydrogenase …; assay: in vitro import into chloroplasts and assembly
[2] = molecular target: T2, in vitro imported Arabidopsis thaliana …; assay: in vitro import into chloroplasts and assembly

Row | binding result [1] | binding result [2] | Binder
1 | binds | – | in vitro imported Arabidopsis thaliana plastid PDC E2 subunit (enzyme, Translated in vitro and imported into chloroplasts; also called imported PDC E2 subunits) IREIFMPALSSTMTEGKIVSWIKTEGEKLAKGESVVVVESDKADMDVETFYDGYLAAIVVGEGETAPVGAAIGLLAETEAEIEEAKSKAASKSSSSVAEAVVPSPPPVTSSPAPAIAQPAPVTAVSDGPRKTVATPYAKKLAKQHKVDIESVAGTGPFGRITASDVETAAGIAPSKSSIAPPPPPPPPVTAKATTTNLPPLLPDSSIVPFTAMQSAVSKNMIESLSVPTFRVGYPVNTDALDALYEKVKPKGVTMTALLAKAAGMALAQHPVVNASCKDGKSFSYNSSINIAVAVAINGGLITPVLQDADKLDLYLLSQKWKELVGKARSKQLQPHEYNSGTFTLSNLGMFGVDRFDAILPPGQGAIMAVGASKPTVVADKDGFFSVKNTMLVNVTADHRIVYGADLAAFLQTFAKIIENPDSLTL
2 | – | binds | in vitro imported Arabidopsis thaliana plastid PDC E1β subunit (enzyme, Translated in vitro and imported into chloroplasts) KEADTSASTGHELLLFEALQEGLEEEMDRDPHVCVMGEDVGHYGGSYKVTKGLADKFGDLRVLDTPICENAFTGMGIGAAMTGLRPVIEGMNMGFLLLAFNQISNNCGMLHYTSGGQFTIPVVIRGPGGVGRQLGAEHSQRLESYFQSIPGIQMVACSTPYNAKGLMKAAIRSENPVILFEHVLLYNLKEKIPDEDYICNLEEAEMVRPGEHITILTYSRMRYHVMQAAKTLVNKGYDPEVIDIRSLKPFDLHTIGNSVKKTHRVLIVEECMRTGGIGASLTAAINENFHDYLDAPVMCLSSQDVPTPYAGTLEEWTVVQPAQIVTAVEQLCQ
